Where two headings read alike, the source gives them in different places.
Tests used:
[1] = target: ^FSClpX (TAMRA-labelled single-chain E. coli ^C169SClpX^ΔN pseudohexamer) (E. coli); assay: other fluorescence titration
[2] = target: ^FSClpX (TAMRA-labelled single-chain E. coli ^C169SClpX^ΔN pseudohexamer) (E. coli); assay: other fluorescence titration; remark: listed apart in the source
[3] = target: ^FSClpXP (^FSClpX with ClpP) (E. coli) (UniProt P0A6G7); assay: other fluorescence titration
[4] = target: ^FSClpXP (^FSClpX with ClpP) (E. coli) (UniProt P0A6G7); assay: stopped-flow fluorescence quenching
[5] = target: ^FSClpXP (^FSClpX with ClpP) (E. coli) (UniProt P0A6G7); assay: other fluorescence titration; remark: listed apart in the source
[6] = target: ^FSClpXP (^FSClpX with ClpP) (E. coli) (UniProt P0A6G7); assay: stopped-flow fluorescence quenching; remark: listed apart in the source

Chain of UniProt P0A6G7 (P0A6G7 whole entry, looked up): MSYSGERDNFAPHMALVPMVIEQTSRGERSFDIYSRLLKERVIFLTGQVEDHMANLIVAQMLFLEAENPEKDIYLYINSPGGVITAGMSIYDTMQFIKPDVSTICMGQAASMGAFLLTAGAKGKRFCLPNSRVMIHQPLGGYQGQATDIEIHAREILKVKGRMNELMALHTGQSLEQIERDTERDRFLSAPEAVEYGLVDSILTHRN

Row | Substance | Kd [1] | Kd [2] | Kd [3] | time constant of dissociation, fast phase [4] | time constant of dissociation, slow phase [4] | Kd [5] | time constant of dissociation, fast phase [6] | time constant of dissociation, slow phase [6]
1 | ^UFtitin-BQ-ssrA (titin-BQ-ssrA unfolded by carboxymethylation of otherwise-buried cysteines) (domain or fragment) | 90 nM | 550 nM |  |  |  |  |  | 
2 | titin-BQ-ssrA (ssrA-tagged I27 domain of human titin labelled with the BHQ-10 quencher) (domain or fragment) | 59 nM | 110 nM | 60 nM | 3 s | 50 s | 30 to 100 nM | 2 s | 240 s
